As usually defined, the Kd is the equilibrium constant for the complex coming apart.

First the molecules themselves.
B1: ySMB-ST1 (designed binder)
chain: VSSVPTKLEVVAATPTSLLISWDASSSSVSYYRITYGETGGNSPVQEFTVPGSSSTATISGLSPGVDYTITVYAYYSYYDIYYAVSPSSINYRT
B2: ySMB-ST2 (designed binder)
chain: B1 chain with Y78E, Y79E, D80F, I81F, Y82D
B3: ySMB-ST3 (designed binder)
chain: B1 chain with Y73F, Y78E, Y79E, D80F, I81F, Y82D, V85Y
B4: ySMB-ST4 (designed binder)
chain: B1 chain with Y78D, Y79D, D80F, I81L, Y82D, Y83F, V85F
B5: ySMB-ST5 (designed binder)
chain: B1 chain with D80N, Y82F, Y83F, V85D
B6: Clone# 1 (ySUMO Monobodies) (designed binder)
chain: B1 chain
notes: recovered against ySUMO from the SUMO-targeted library
B7: Clone# 5 (ySUMO Monobodies) (designed binder)
chain: B1 chain with D80N, Y82F, Y83F, V85D
notes: as for B6
B8: Clone# 3 (ySUMO Monobodies) (designed binder)
chain: B1 chain with Y73F, Y78E, Y79E, D80F, I81F, Y82D, V85Y
notes: as for B6
B9: Clone# 4 (ySUMO Monobodies) (designed binder)
chain: B1 chain with Y78D, Y79D, D80F, I81L, Y82D, Y83F, V85F
notes: as for B6
B10: Clone# 2 (ySUMO Monobodies) (designed binder)
chain: B1 chain with Y78E, Y79E, D80F, I81F, Y82D
notes: as for B6
B11: SEQ ID NO 22 (designed binder)
chain: VSSVPTKLEVVAATPTSLLISWDAPAVTVDHYFITYGETGGSWSYYQEFAVPGSKSTATISGLSPGVDYTITVYAYSYEPYYYYNPISINYRT
B12: SEQ ID NO 24 (designed binder)
chain: VSSVPTKLEVVAATPTSLLISWDAPAVTVDLYIITYGETGSYHGWQTFTVPGSKSTATISGLSPGVDYTITVYADSSTWPYWYYSSPISINYRT
B13: SEQ ID NO 14 (designed binder)
chain: VSSVPTKLEVVAATPTSLLISWDAPAVTVDHYHITYGETGGSWSGYQEFTVPGSKSTATISGLSPGVDYTITVYANSSWYWYNPISINYRT
B14: SEQ ID NO 23 (designed binder)
chain: VSSVPTKLEVVAATPTSLLISWDAPAVTVDFYVITYGETGSFSPPQEFTVPGSKSTATISGLSPGVDYTITVYAMMWGWEYYDYNISPISINYRT
B15: SEQ ID NO 25 (designed binder)
chain: B14 chain
B16: SEQ ID NO 27 (designed binder)
chain: B14 chain
B17: SEQ ID NO 18 (designed binder)
chain: VSSVPTKLEVVAATPTSLLISWDAPAVTVDYYVITYGETGGNSPVQEFTVPGSKSTATISGLSPGVDYTITVYAWSWKYWYHGSPISINYRT
B18: SEQ ID NO 17 (designed binder)
chain: VSSVPTKLEVVAATPTSLLISWDAPAVTVDYYVITYGETGWYSPPQEFTVPGSKSTATISGLSPGVDYTITVYAWNWSAGLQSPISINYRT
B19: SEQ ID NO 15 (designed binder)
chain: VSSVPTKLEVVAATPTSLLISWDAPAVTVDHYVITYGETGAHYYYFQEFEVPGSKSTATISGLSPGVDYTITVYAVSHGTDGNKLYFFSPISINYRT
B20: SEQ ID NO 26 (designed binder)
chain: VSSVPTKLEVVAATPTSLLISWDAPAVTVDHYVITYGETGGVWYGYQEFTVPGSKSTATISGLSPGVDYTITVYAMTSYFQEYWSPISINYRT
B21: SEQ ID NO 19 (designed binder)
chain: VSSVPTKLEVVAATPTSLLISWDAPAVTVDFYIITYGETGGGYYSYQTFTVPGSKSTATISGLSPGVDYTITVYANEFGKSYPYTMNPISINYRT
B22: SEQ ID NO 21 (designed binder)
chain: VSSVPTKLEVVAATPTSLLISWDAPAVTVDLYHITYGETGGVWSGYQEFTVPGSKSTATISGLSPGVDYTITVYAVQHQEIWPYYYSPISINYRT
B23: SEQ ID NO 20 (designed binder)
chain: VSSVPTKLEVVAATPTSLLISWDAPAVTVLYYVITYGETGGNSPVQEFTVPGSKSTATISGLSPGVDYTITVYATDYGPGYPYESPISINYRT
B24: SEQ ID NO 13 (designed binder)
chain: VSSVPTKLEVVAATPTSLLISWDAPAVTVDYYVITYGETGGGYYSFQAFEVPGSKSTATISGLSPGVDYTITVYAFWPDDYYYGGSEYSPISINYRT
B25: ySMB-64 (designed binder)
chain: VSSVPTKLEVVAATPTSLLISWDASQFSGVSYYRITYGETGGNSPVQEFTVPGSYSTATISGLSPGVDYTITVYAYYHEHWGYYSYSPISINYRT
notes: variable loops only; library YSGW
B26: ySMB-90 (designed binder)
chain: B1 chain with S77Y, Y78S, D80Y, I81Y, Y82S, A84S, V85Y, S88I
notes: variable loops only; library YS
B27: ySMB-69 (designed binder)
chain: B1 chain with Y78T, D80W, I81Y, Y82D, Y83W, A84S, V85G, S88I
notes: as for B25
B28: ySMB-71 (designed binder)
chain: B1 chain with S77V, Y78G, Y79D, D80G, I81Y, Y83W, A84S, V85E, S88I
notes: as for B25
B29: ySMB-74 (designed binder)
chain: B1 chain with S77Y, Y78F, I81Y, Y82W, Y83M, V85Y, S88I
notes: as for B25
B30: ySMB-67 (designed binder)
chain: VSSVPTKLEVVAATPTSLLISWDAGSFGFHDPVYYYRITYGETGGNSPVQEFTVPGSSSTATISGLSPGVDYTITVYAYYQYMDYYYSYSPISINYRT
notes: as for B25
B31: ySMB-91 (designed binder)
chain: VSSVPTKLEVVAATPTSLLISWDASYSSSSVSYYRITYGETGGNSPVQEFTVPGSSSTATISGLSPGVDYTITVYAYYYSYYYYYSYSPISINYRT
notes: as for B26
B32: ySMB-20 (designed binder)
chain: VSSVPTKLEVVAATPTSLLISWDAGYYMNYYMVDYYRITYGETGGNSPVQEFTVPGSSSTATISGLSPGVDYTITVYAYWYDEYGQYWWSESPISINYRT
notes: as for B25
B33: ySMB-4 (designed binder)
chain: VSSVPTKLEVVAATPTSLLISWDAPWAYSQSVAYYRITYGETGGNSPVQEFTVPGSSSTATISGLSPGVDYTITVYAYYGTPWGEGWYSWSPISINYRT
notes: as for B25
B34: ySMB-7 (designed binder)
chain: VSSVPTKLEVVAATPTSLLISWDASSSSVSYYRITYGETGGNSPVQEFTVPGSSSTATISGLSPGVDYTITVYAYQEWSYGWSSESPISINYRT
notes: as for B25
B35: ySMB-6 (designed binder)
chain: B34 chain with G52S, S53Y, Q76W, W78F, S79E, W82Y, S83W, E85Y
notes: as for B25
B36: ySMB-17 (designed binder)
chain: VSSVPTKLEVVAATPTSLLISWDASSSSVSYYRITYGETGGNSPVQEFTVPGSSSTATISGLSPGVDYTITVYAYIQYYDLYYASPISINYRT
notes: as for B25

Positions count from the first letter of the chain named.

In one experiment the target is T1, yeast small ubiquitin-like modifier protein (yeast, UniProt Q12306 3-98 = SUMO).
T1 construct: GST fusion in most phage ELISAs, His-tagged or tag-cleaved elsewhere; also called ySUMO; yeast SUMO
T1 sequence (Q12306 3-98 limits assumed): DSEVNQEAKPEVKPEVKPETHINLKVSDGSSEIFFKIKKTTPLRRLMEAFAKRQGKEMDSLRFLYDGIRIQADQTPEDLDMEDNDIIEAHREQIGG
The experiment is described as follows: SPR (Biacore 2000), monobody immobilised via His-tag on NTA surface, ySUMO flowed over it. The procedure:
(§1) Cradle molecules purified as described above were immobilized via His-tag to an NTA surface using a Biacore™ 2000 instrument so that the theoretical maximum response (Rₘₐₓ) from target binding was 100-200 RU. Target protein at varying concentrations was then flowed over the surface at a flow rate of 30 μL/min and the binding signal recorded. Fitting of kinetic traces was carried out using the BIAevaluation software. For equilibrium experiments, the equilibrium binding response was recorded for multiple target concentrations and fit to a simple 1:1 saturation binding curve.
A general note: Surface plasmon resonance follows binding to a sensor surface in real time, without labels.
In turn, B1 showed a Kd of 39 nM.
Still for that read-out and setting: the same measure for B2: 194 nM; for B3: 435 nM.
The same measure, in the same setting: the figure for B4 is 3300 nM.
On the same count and under the same terms, the same measure for B5: 112 nM.

The target of another experiment is T1, yeast small ubiquitin-like modifier …. Nature of the experiment: SPR (monobody on the chip via His-tag, target flowed); estimated Kd. The procedure:
as §1
Take B6: the Kd is 39 nM.
On the same count and under the same terms, the same measure for B7: 112 nM; for B8: 435 nM.
As to B9, the Kd was 3300 nM.
On to B10, for which the Kd is 194 nM.

The target of the next experiment is human ubiquitin (human, UniProt P0CG48 1-76). Nature of the experiment: phage display selection hit, BL1 library.
On to B11, for which the binding result is reported as “binds”.
In the case of B12, the binding result is “binds”.
The same measure, in the same setting: the same measure for B13: “binds”.
The same measure, in the same setting: the same measure for B14: “binds”; for B15: “binds”; for B16: “binds”.
With B17, the binding result is recorded as “binds”.
On the same count and under the same terms, the same measure for B18: “binds”; for B19: “binds”; for B20: “binds”.
On the same count and under the same terms, the same measure for B21: “binds”; for B22: “binds”.
On the same count and under the same terms, the same measure for B23: “binds”.
As to B24, the binding result is on record as “binds”.

The next experiment has as its target T1, yeast small ubiquitin-like modifier …. The experiment is described as follows: SPR; column 'Estimated Kd (nM)' [Continued]. In outline:
(§2)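 Surface plasmon resonance on a Biacore 2000: purified His-tagged molecules were captured on an NTA surface to give a theoretical maximum target response of 100-200 RU. Target at varying concentrations was flowed at 30 μL/min and the binding signal recorded. Estimated Kd came either from kinetic fitting in BIAevaluation software or from equilibrium responses at multiple concentrations fit to a 1:1 saturation binding curve.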
On to B25, for which the Kd is 280 nM.
Same read-out and setting: the figure for B26 is 320 nM; for B27 it is 138 nM.
The same measure, in the same setting: the figure for B28 is 230 nM; for B29 it is 544 nM; for B30 it is 1000 nM.
The same measure, in the same setting: the same measure for B31: 1000 nM.

The next experiment has the same target. Nature of the experiment: SPR; column 'Estimated Kd (nM)'. In outline:
as §2
Take B32: the dissociation constant Kd was 66 nM.
On the same count and under the same terms, the figure for B33 is 210 nM; for B34 it is 800 nM; for B35 it is 166 nM.
On the same count and under the same terms, the same measure for B36: 40 nM.

The target is the same in another experiment. Nature of the experiment: SPR. The procedure: as §1
The molecule B33 yielded a Kd of 210 nM.
In the case of B34, binding was put at a Kd of 800 nM.
Turning to B35, the Kd was found to be 166 nM.

Source of the values: US20140057807A1 (UNIVERSITY OF CHICAGO, published 2014).
